B1: BmrA D572A (natural protein, Bacillus subtilis strain 168, UniProt O06967 1-589, looked up)
chain: MPTKKQKSKSKLKPFFALVRRTNPSYGKLAFALALSVVTTLVSLLIPLLTKQLVDGFSMSNLSGTQIGLIALVFFVQAGLSAYATYALNYNGQKIISGLRELLWKKLIKLPVSYFDTNASGETVSRVTNDTMVVKELITTHISGFITGIISVIGSLTILFIMNWKLTLLVLVVVPLAALILVPIGRKMFSISRETQDETARFTGLLNQILPEIRLVKASNAEDVEYGRGKMGISSLFKLGVREAKVQSLVGPLISLVLMAALVAVIGYGGMQVSSGELTAGALVAFILYLFQIIMPMGQITTFFTQLQKSIGATERMIEILAEEEEDTVTGKQIENAHLPIQLDRVSFGYKPDQLILKEVSAVIEAGKVTAIVGPSGGGKTTLFKLLERFYSPTAGTIRLGDEPVDTYSLESWREHIGYVSQESPLMSGTIRENICYGLERDVTDAEIEKAAEMAYALNFIKELPNQFDTEVGERGIMLSGGQRQRIAIARALLRNPSILMLDEATSSLDSQSEKSVQQALEVLMEGRTTIVIAHRLSTVVDADQLLFVEKGEITGRGTHHELMASHGLYRAFAEQQLKMNADLENKAG
notes: BmrA of Bacillus subtilis strain 168, full length, D572 replaced by Ala; source: E. coli, purified in presence of detergent (DDM)
B2: BmrA Q576A (natural protein, Bacillus subtilis strain 168, UniProt O06967 1-589, looked up)
chain: MPTKKQKSKSKLKPFFALVRRTNPSYGKLAFALALSVVTTLVSLLIPLLTKQLVDGFSMSNLSGTQIGLIALVFFVQAGLSAYATYALNYNGQKIISGLRELLWKKLIKLPVSYFDTNASGETVSRVTNDTMVVKELITTHISGFITGIISVIGSLTILFIMNWKLTLLVLVVVPLAALILVPIGRKMFSISRETQDETARFTGLLNQILPEIRLVKASNAEDVEYGRGKMGISSLFKLGVREAKVQSLVGPLISLVLMAALVAVIGYGGMQVSSGELTAGALVAFILYLFQIIMPMGQITTFFTQLQKSIGATERMIEILAEEEEDTVTGKQIENAHLPIQLDRVSFGYKPDQLILKEVSAVIEAGKVTAIVGPSGGGKTTLFKLLERFYSPTAGTIRLGDEPVDTYSLESWREHIGYVSQESPLMSGTIRENICYGLERDVTDAEIEKAAEMAYALNFIKELPNQFDTEVGERGIMLSGGQRQRIAIARALLRNPSILMLDEATSSLDSQSEKSVQQALEVLMEGRTTIVIAHRLSTVVDADQLLFVEKGEITGRGTHHELMASHGLYRDFAEAQLKMNADLENKAG
notes: BmrA of Bacillus subtilis strain 168, full length, Q576 replaced by Ala; source: E. coli, purified in presence of detergent (DDM)
B3: BmrA L578A (natural protein, Bacillus subtilis strain 168, UniProt O06967 1-589, looked up)
chain: MPTKKQKSKSKLKPFFALVRRTNPSYGKLAFALALSVVTTLVSLLIPLLTKQLVDGFSMSNLSGTQIGLIALVFFVQAGLSAYATYALNYNGQKIISGLRELLWKKLIKLPVSYFDTNASGETVSRVTNDTMVVKELITTHISGFITGIISVIGSLTILFIMNWKLTLLVLVVVPLAALILVPIGRKMFSISRETQDETARFTGLLNQILPEIRLVKASNAEDVEYGRGKMGISSLFKLGVREAKVQSLVGPLISLVLMAALVAVIGYGGMQVSSGELTAGALVAFILYLFQIIMPMGQITTFFTQLQKSIGATERMIEILAEEEEDTVTGKQIENAHLPIQLDRVSFGYKPDQLILKEVSAVIEAGKVTAIVGPSGGGKTTLFKLLERFYSPTAGTIRLGDEPVDTYSLESWREHIGYVSQESPLMSGTIRENICYGLERDVTDAEIEKAAEMAYALNFIKELPNQFDTEVGERGIMLSGGQRQRIAIARALLRNPSILMLDEATSSLDSQSEKSVQQALEVLMEGRTTIVIAHRLSTVVDADQLLFVEKGEITGRGTHHELMASHGLYRDFAEQQAKMNADLENKAG
notes: BmrA of Bacillus subtilis strain 168, full length, L578 replaced by Ala; source: E. coli, purified in presence of detergent (DDM)
B4: BmrA A574V (natural protein, Bacillus subtilis strain 168, UniProt O06967 1-589, looked up)
chain: MPTKKQKSKSKLKPFFALVRRTNPSYGKLAFALALSVVTTLVSLLIPLLTKQLVDGFSMSNLSGTQIGLIALVFFVQAGLSAYATYALNYNGQKIISGLRELLWKKLIKLPVSYFDTNASGETVSRVTNDTMVVKELITTHISGFITGIISVIGSLTILFIMNWKLTLLVLVVVPLAALILVPIGRKMFSISRETQDETARFTGLLNQILPEIRLVKASNAEDVEYGRGKMGISSLFKLGVREAKVQSLVGPLISLVLMAALVAVIGYGGMQVSSGELTAGALVAFILYLFQIIMPMGQITTFFTQLQKSIGATERMIEILAEEEEDTVTGKQIENAHLPIQLDRVSFGYKPDQLILKEVSAVIEAGKVTAIVGPSGGGKTTLFKLLERFYSPTAGTIRLGDEPVDTYSLESWREHIGYVSQESPLMSGTIRENICYGLERDVTDAEIEKAAEMAYALNFIKELPNQFDTEVGERGIMLSGGQRQRIAIARALLRNPSILMLDEATSSLDSQSEKSVQQALEVLMEGRTTIVIAHRLSTVVDADQLLFVEKGEITGRGTHHELMASHGLYRDFVEQQLKMNADLENKAG
notes: BmrA of Bacillus subtilis strain 168, full length, A574 replaced by Val; source: E. coli, purified in presence of detergent (DDM)
B5: BmrA E575A (natural protein, Bacillus subtilis strain 168, UniProt O06967 1-589, looked up)
chain: MPTKKQKSKSKLKPFFALVRRTNPSYGKLAFALALSVVTTLVSLLIPLLTKQLVDGFSMSNLSGTQIGLIALVFFVQAGLSAYATYALNYNGQKIISGLRELLWKKLIKLPVSYFDTNASGETVSRVTNDTMVVKELITTHISGFITGIISVIGSLTILFIMNWKLTLLVLVVVPLAALILVPIGRKMFSISRETQDETARFTGLLNQILPEIRLVKASNAEDVEYGRGKMGISSLFKLGVREAKVQSLVGPLISLVLMAALVAVIGYGGMQVSSGELTAGALVAFILYLFQIIMPMGQITTFFTQLQKSIGATERMIEILAEEEEDTVTGKQIENAHLPIQLDRVSFGYKPDQLILKEVSAVIEAGKVTAIVGPSGGGKTTLFKLLERFYSPTAGTIRLGDEPVDTYSLESWREHIGYVSQESPLMSGTIRENICYGLERDVTDAEIEKAAEMAYALNFIKELPNQFDTEVGERGIMLSGGQRQRIAIARALLRNPSILMLDEATSSLDSQSEKSVQQALEVLMEGRTTIVIAHRLSTVVDADQLLFVEKGEITGRGTHHELMASHGLYRDFAAQQLKMNADLENKAG
notes: BmrA of Bacillus subtilis strain 168, full length, E575 replaced by Ala; source: E. coli, purified in presence of detergent (DDM)
B6: BmrA R571A (natural protein, Bacillus subtilis strain 168, UniProt O06967 1-589, looked up)
chain: MPTKKQKSKSKLKPFFALVRRTNPSYGKLAFALALSVVTTLVSLLIPLLTKQLVDGFSMSNLSGTQIGLIALVFFVQAGLSAYATYALNYNGQKIISGLRELLWKKLIKLPVSYFDTNASGETVSRVTNDTMVVKELITTHISGFITGIISVIGSLTILFIMNWKLTLLVLVVVPLAALILVPIGRKMFSISRETQDETARFTGLLNQILPEIRLVKASNAEDVEYGRGKMGISSLFKLGVREAKVQSLVGPLISLVLMAALVAVIGYGGMQVSSGELTAGALVAFILYLFQIIMPMGQITTFFTQLQKSIGATERMIEILAEEEEDTVTGKQIENAHLPIQLDRVSFGYKPDQLILKEVSAVIEAGKVTAIVGPSGGGKTTLFKLLERFYSPTAGTIRLGDEPVDTYSLESWREHIGYVSQESPLMSGTIRENICYGLERDVTDAEIEKAAEMAYALNFIKELPNQFDTEVGERGIMLSGGQRQRIAIARALLRNPSILMLDEATSSLDSQSEKSVQQALEVLMEGRTTIVIAHRLSTVVDADQLLFVEKGEITGRGTHHELMASHGLYADFAEQQLKMNADLENKAG
notes: BmrA of Bacillus subtilis strain 168, full length, R571 replaced by Ala; source: E. coli, purified in presence of detergent (DDM)
B7: BmrA L569A (natural protein, Bacillus subtilis strain 168, UniProt O06967 1-589, looked up)
chain: MPTKKQKSKSKLKPFFALVRRTNPSYGKLAFALALSVVTTLVSLLIPLLTKQLVDGFSMSNLSGTQIGLIALVFFVQAGLSAYATYALNYNGQKIISGLRELLWKKLIKLPVSYFDTNASGETVSRVTNDTMVVKELITTHISGFITGIISVIGSLTILFIMNWKLTLLVLVVVPLAALILVPIGRKMFSISRETQDETARFTGLLNQILPEIRLVKASNAEDVEYGRGKMGISSLFKLGVREAKVQSLVGPLISLVLMAALVAVIGYGGMQVSSGELTAGALVAFILYLFQIIMPMGQITTFFTQLQKSIGATERMIEILAEEEEDTVTGKQIENAHLPIQLDRVSFGYKPDQLILKEVSAVIEAGKVTAIVGPSGGGKTTLFKLLERFYSPTAGTIRLGDEPVDTYSLESWREHIGYVSQESPLMSGTIRENICYGLERDVTDAEIEKAAEMAYALNFIKELPNQFDTEVGERGIMLSGGQRQRIAIARALLRNPSILMLDEATSSLDSQSEKSVQQALEVLMEGRTTIVIAHRLSTVVDADQLLFVEKGEITGRGTHHELMASHGAYRDFAEQQLKMNADLENKAG
notes: BmrA of Bacillus subtilis strain 168, full length, L569 replaced by Ala; source: E. coli, purified in presence of detergent (DDM)
B8: BmrA F573A (natural protein, Bacillus subtilis strain 168, UniProt O06967 1-589, looked up)
chain: MPTKKQKSKSKLKPFFALVRRTNPSYGKLAFALALSVVTTLVSLLIPLLTKQLVDGFSMSNLSGTQIGLIALVFFVQAGLSAYATYALNYNGQKIISGLRELLWKKLIKLPVSYFDTNASGETVSRVTNDTMVVKELITTHISGFITGIISVIGSLTILFIMNWKLTLLVLVVVPLAALILVPIGRKMFSISRETQDETARFTGLLNQILPEIRLVKASNAEDVEYGRGKMGISSLFKLGVREAKVQSLVGPLISLVLMAALVAVIGYGGMQVSSGELTAGALVAFILYLFQIIMPMGQITTFFTQLQKSIGATERMIEILAEEEEDTVTGKQIENAHLPIQLDRVSFGYKPDQLILKEVSAVIEAGKVTAIVGPSGGGKTTLFKLLERFYSPTAGTIRLGDEPVDTYSLESWREHIGYVSQESPLMSGTIRENICYGLERDVTDAEIEKAAEMAYALNFIKELPNQFDTEVGERGIMLSGGQRQRIAIARALLRNPSILMLDEATSSLDSQSEKSVQQALEVLMEGRTTIVIAHRLSTVVDADQLLFVEKGEITGRGTHHELMASHGLYRDAAEQQLKMNADLENKAG
notes: BmrA of Bacillus subtilis strain 168, full length, F573 replaced by Ala; source: E. coli, purified in presence of detergent (DDM)
B9: BmrA Q577A (natural protein, Bacillus subtilis strain 168, UniProt O06967 1-589, looked up)
chain: MPTKKQKSKSKLKPFFALVRRTNPSYGKLAFALALSVVTTLVSLLIPLLTKQLVDGFSMSNLSGTQIGLIALVFFVQAGLSAYATYALNYNGQKIISGLRELLWKKLIKLPVSYFDTNASGETVSRVTNDTMVVKELITTHISGFITGIISVIGSLTILFIMNWKLTLLVLVVVPLAALILVPIGRKMFSISRETQDETARFTGLLNQILPEIRLVKASNAEDVEYGRGKMGISSLFKLGVREAKVQSLVGPLISLVLMAALVAVIGYGGMQVSSGELTAGALVAFILYLFQIIMPMGQITTFFTQLQKSIGATERMIEILAEEEEDTVTGKQIENAHLPIQLDRVSFGYKPDQLILKEVSAVIEAGKVTAIVGPSGGGKTTLFKLLERFYSPTAGTIRLGDEPVDTYSLESWREHIGYVSQESPLMSGTIRENICYGLERDVTDAEIEKAAEMAYALNFIKELPNQFDTEVGERGIMLSGGQRQRIAIARALLRNPSILMLDEATSSLDSQSEKSVQQALEVLMEGRTTIVIAHRLSTVVDADQLLFVEKGEITGRGTHHELMASHGLYRDFAEQALKMNADLENKAG
notes: BmrA of Bacillus subtilis strain 168, full length, Q577 replaced by Ala; source: E. coli, purified in presence of detergent (DDM)

This data set concerns the molecule itself. Put plainly: native gel or EMSA; blue native PAGE of purified BmrA wt and Ala (Val) variants in DDM micelles; 4 to 16% Bis-Tris gel; dimer to monomers. In general terms: Mobility shift assays separate free from complexed probe on a gel.
With B1, the binding result is given as “binds”.
As for B2, the entry is “binds”.
As for B3, the entry is “binds”; as for B4, “binds”; as for B5, “binds”.
Consider B6, for which the binding result is recorded as “binds”.
With B7, the binding result is recorded as “binds”.
Next, B8: “binds”; B9: “binds”.

The values above are taken from article PMC11774805, “The C-terminal α-helix is crucial for the activity of the bacterial ABC transporter BmrA” (The Journal of Biological Chemistry, 2024).
